From publication PMC11569197

Assays:
[1] = biological target: cone-specific G-protein transducin alpha subunit employed as a Gtα/Giα chimera, non-myristoylated (European robin); assay: SPR; Biacore 3000, CM5 chip, amine coupling; Gtα/Giα immobilised, ErCry4a 5-100 nM (and 500 nM) injected; global fit with a two-state-reaction model; 10 mM HEPES/NaOH pH 7.4, 150 mM NaCl, 10 mM MgCl2, 0.005% Tween-20, 3.4 mM EDTA
[2] = biological target: Gtα-EYFP (cone transducin alpha subunit, GNAT2, with C-terminal EYFP) (European robin); assay: FRET or BRET; acceptor photobleaching FRET in transiently transfected, fixed QNR/K2 quail neuroretina cells; donor mTurquoise on ErCry4a, acceptor EYFP; confocal microscope, FRET efficiency (Dpost - Dpre)/Dpost

Kd [1]	ka1 (two-state-reaction model) [1]	kd1 (two-state-reaction model) [1]	mean FRET efficiency [2]	Substance
19.8 nM	221000 M⁻¹ s⁻¹	0.00438 s⁻¹	–	European robin cryptochrome 4a (ErCry4a), purified recombinant (natural protein)
–	–	–	24.5%	mTurquoise-ErCry4a (N-terminally tagged ErCry4a) (natural protein)
